# Measurements published in US20240400703A1 (Genmab, published 2024).
# T1: recombinant human OX40 fused to a His-tag (Acro Biosystems, cat. no. OX0-H5224) (human, UniProt P43489 29-214)
# T1 construct: bought protein; also called sOX40; soluble OX40; not shown: His-tag
# T1 sequence: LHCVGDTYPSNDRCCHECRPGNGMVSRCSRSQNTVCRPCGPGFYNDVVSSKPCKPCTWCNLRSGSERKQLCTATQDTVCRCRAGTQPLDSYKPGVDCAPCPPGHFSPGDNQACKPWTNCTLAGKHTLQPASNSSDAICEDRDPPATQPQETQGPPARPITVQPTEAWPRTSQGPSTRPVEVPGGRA
# T2: recombinant cynomolgus monkey OX40 (Acro Biosystems, cat. no. OX0-C5220) (cynomolgus monkey (Macaca fascicularis), UniProt P43489 29-214 (human entry))
# T2 construct: bought protein; also called Cyno OX40
# T2 chain: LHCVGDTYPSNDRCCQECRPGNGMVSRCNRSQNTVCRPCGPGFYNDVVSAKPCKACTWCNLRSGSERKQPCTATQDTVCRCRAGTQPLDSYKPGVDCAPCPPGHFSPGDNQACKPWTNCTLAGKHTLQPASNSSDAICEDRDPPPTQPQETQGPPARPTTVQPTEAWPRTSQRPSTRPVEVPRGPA
# Tests used:
# [1] = target: T1, recombinant human OX40 fused to a …; assay: BLI cross-block; first Ab (competitor): IgG1-CD134-INCAGN1949
# Method: (§1) Experiments were carried out while shaking at 1,000 RPM and at 30° C.
# (§2) Amine Reactive 2nd Generation (AR2G) biosensors (Sartorius, cat. no. 18-5092) were activated for 300 s with a solution of 20 mM EDC (N-(3-Dimethylaminopropyl)-N-ethylcarbodiimide hydrochloride; Sartorius, cat. no. 18-1033) and 10 mM s-NHS (N-hydroxysulfosuccinimide sodium salt; Sartorius, cat. no. 18-1067). […] After a baseline measurement in Sample Diluent (Sartorius, cat. no. 18-1104) for 50 s, the AR2G biosensors containing immobilized antibody were loaded for 300 s with human OX40 fused to a His-tag (100 nM diluted in Sample Diluent; Acro Biosystems, cat. no. OX0-H5224). The association (300 s) of a second antibody (10 μg/mL in Sample Diluent) was determined. Sensors were regenerated by three cycles of exposure to 10 mM Glycine (Sigma-Aldrich, cat. no. 15527) buffer pH 2.5 for 5 s followed by neutralization in Sample Diluent for 5 s.
# (§3) Data were acquired using Data Acquisition Software v12.0 (Sartorius) and analyzed with Data Analysis HT Software v12.0 (Sartorius). Data traces were corrected by subtraction of a reference curve (Sample Diluent instead of second antibody) in order to correct for the dissociation of antigen from the immobilized first antibody. The Y-axis was aligned to the start of the association step and Savitzky-Golay filtering was applied. The corrected association responses of the second antibodies were plotted in a matrix format (Table 5). Responses ≥0.1 nm were considered non-blocking antibody pairs, while responses <0.1 were considered blocking antibody pairs.
# [2] = target: T1, recombinant human OX40 fused to a …; assay: BLI, Ab on AHC sensor, OX40 analyte
# Method: (§4) Experiments were carried out while shaking at 1,000 RPM at 30° C. […] Next, AHC sensors were loaded with antibody (1 μg/mL in Sample Diluent) for 600 s. After a baseline measurement in sample diluent (100 s), the association (200 s) and dissociation (1,000 s) of human OX40 (Acro Biosystems, cat. no. OX0-H5224), and cynomolgus monkey OX40 (Acro Biosystems, cat. no. OX0-C5220) was determined using a concentration range of 0.78 to 800 nM with 2-fold dilution steps.
# (§5) The theoretical molecular masses of the antigens based on the amino acid sequences were used for calculations. For each antibody, a reference sensor was used which was incubated with Sample Diluent instead of antigen. AHC sensors were regenerated by exposure to 10 mM glycine buffer pH 1.7 for 5 s, followed by neutralization in Sample Diluent for 5 s; both steps were repeated twice. Subsequently sensors were loaded again with antibody for the next cycle of kinetic measurements.
# (§6) Data were acquired using Data Acquisition Software v12.0 (Sartorius) and analyzed with Data Analysis Software v12.0 (Sartorius). Data traces were corrected per antibody by subtraction of the reference sensor. The Y-axis was aligned to the last 10 s of the baseline and Interstep Correction alignment to dissociation as well as Savitzky-Golay filtering were applied. Data traces with a response <0.05 nm were excluded from analysis. […] The data was fitted with the 1:1 model using a window of interest for the association of 200 s and dissociation times set at 50 s, 200 s and 1,000 s. The dissociation time was chosen based upon R² value, visual inspection of the curve and at least 5% signal decay during the dissociation step.
# [3] = target: T2, recombinant cynomolgus monkey OX40 …; assay: BLI, Ab on AHC sensor, OX40 analyte
# Method: as §4, §5, §6
# [4] = target: T1, recombinant human OX40 fused to a …; assay: BLI cross-block; first Ab (competitor): IgG1-CD134-h3C8
# Method: as §2, §3
# [5] = target: T1, recombinant human OX40 fused to a …; assay: BLI cross-block; first Ab (competitor): IgG1-CD134-A4453
# Method: as §2, §3
# [6] = target: T1, recombinant human OX40 fused to a …; assay: BLI cross-block; first Ab (competitor): IgG1-CD134-ABBV368
# Method: as §1, §2, §3
# [7] = target: T1, recombinant human OX40 fused to a …; assay: BLI cross-block; first Ab (competitor): IgG1-CD134-49B4-RRE
# Method: as §1, §2, §3
# [8] = target: T1, recombinant human OX40 fused to a …; assay: BLI cross-block; first Ab (competitor): IgG1-CD134-GBR830
# Method: as §1, §2, §3
# [9] = target: T1, recombinant human OX40 fused to a …; assay: BLI cross-block; first Ab (competitor): IgG1-CD134-007
# Method: as §2, §3
# [10] = target: T1, recombinant human OX40 fused to a …; assay: BLI cross-block; first Ab (competitor): IgG1-CD134-11D4
# Method: as §2, §3
association response [1],Kd [2],koff [2],kon [2],Kd [3],koff [3],kon [3],association response [4],association response [5],association response [6],association response [7],association response [8],association response [9],association response [10],Binder
0.06 nm,2 nM,0.00075 s⁻¹,380000 M⁻¹ s⁻¹,7.1 nM,0.0018 s⁻¹,260000 M⁻¹ s⁻¹,-0.02 nm,0.28 nm,-0.05 nm,0 nm,0 nm,0.01 nm,0.15 nm,"IgG1-CD134-007 (antibody, rabbit-human chimeric IgG1) heavy: not shown light: AQVLTQTPSPVSAAVGGTVTISCQSSESVWNNNWLAWYQQKPGQPPNLLIYEASTLASGVSSRFKGSGSGTQFTLTVSEVQSDDAATYYCQGGYYDSSPIWTFGGGTEVVVKRTVAAPSVFIFPPSDEQLKSGTASVVCLLNNFYPREAKVQWKVDNALQSGNSQESVTEQDSKDSTYSLSSTLTLSKADYEKHKVYACEVTHQGLSSPVTKSFNRGEC"
0.07 nm,11 nM,0.0016 s⁻¹,140000 M⁻¹ s⁻¹,–,–,–,0.35 nm,0.22 nm,0.51 nm,0.1 nm,0.16 nm,0.82 nm,0 nm,"IgG1-CD134-012 (antibody, rabbit-human chimeric IgG1) heavy: not shown light: DIVMTQTPASVEAAVGGTVTIKCQASENIYSSLAWYQQKPGQPPKLLIYRTSTLASGVPSRFKGSGSGTQFTLTISDLESDDAATYYCQSYYHNSGGGYDYGFGGGTEVVAKRTVAAPSVFIFPPSDEQLKSGTASVVCLLNNFYPREAKVQWKVDNALQSGNSQESVTEQDSKDSTYSLSSTLTLSKADYEKHKVYACEVTHQGLSSPVTKSFNRGEC"
0.19 nm,3.4 nM,0.00086 s⁻¹,250000 M⁻¹ s⁻¹,27 nM,0.0029 s⁻¹,110000 M⁻¹ s⁻¹,0.5 nm,0.31 nm,0.85 nm,0.25 nm,0.19 nm,-0.04 nm,0 nm,"IgG1-CD134-003-HC6LC2-P329R-E345R (antibody, humanized; human IgG1 with P329R and E345R (Eu numbering), kappa; also called IgG1-CD134-003-HC6LC2-RR) heavy: not shown light: AAVLTQSPSSLSASVGDRVTITCQSSQIVVNNNFLSWYQQKPGKAPKLLIYDASNLASGVPDRFSGSGSGTDFTFTISSLQPEDIATYYCLGGYDDDAENAFGGGTKVEIKRTVAAPSVFIFPPSDEQLKSGTASVVCLLNNFYPREAKVQWKVDNALQSGNSQESVTEQDSKDSTYSLSSTLTLSKADYEKHKVYACEVTHQGLSSPVTKSFNRGEC"
0.15 nm,1.1 nM,0.00035 s⁻¹,330000 M⁻¹ s⁻¹,3.5 nM,0.00096 s⁻¹,280000 M⁻¹ s⁻¹,0.46 nm,0.26 nm,0.72 nm,0.2 nm,0.2 nm,-0.07 nm,0.01 nm,"IgG1-CD134-003 (antibody, rabbit-human chimeric IgG1, wild-type Fc; also called parental chimeric antibody) heavy: not shown light: AAVLTQTPSPVSAAVGGTVTIKCQSSQIVVNNNFLSWYQQKPGQPPKLLIYDASNLASGVPDRFSGSGSGTQFTLTISGVQSDDAATYYCLGGYDDDAENAFGGGTEVVVQRTVAAPSVFIFPPSDEQLKSGTASVVCLLNNFYPREAKVQWKVDNALQSGNSQESVTEQDSKDSTYSLSSTLTLSKADYEKHKVYACEVTHQGLSSPVTKSFNRGEC"
